Assay results from patent publication US20220218805A1 (UNIVERSITY OF BRITISH COLUMBIA, published 2022).
Ends that are not written are not given here.

T1: (4,1) cyclo(CGGGGKLDFG) (SEQ ID NO: 19) conjugated to BSA (not fully specified (residue 1); printed as cyclo(CGGGGKLDFG); also: conjugated to BSA (maleimide coupling))
T1 construct: Screening antigen of the ELISA; also called KLDF (4,1); cyclic peptide-BSA
T1 peptide: cyclo(CGGGGKLDFG)

T2: (3,2) cyclo(CGGGKLDFGG) (SEQ ID NO: 16) conjugated to BSA (not fully specified (residue 1); printed as cyclo(CGGGKLDFGG); also: conjugated to BSA (maleimide coupling))
T2 construct: Screening antigen of the ELISA; also called KLDF (3,2); cyclic peptide-BSA
T2 peptide: cyclo(CGGGKLDFGG)

T3: (3,1) cyclo(CGGGKLDFG) (SEQ ID NO: 15) conjugated to BSA (not fully specified (residue 1); printed as cyclo(CGGGKLDFG); also: conjugated to BSA (maleimide coupling))
T3 construct: Screening antigen of the ELISA; also called KLDF (3,1); cyclic peptide-BSA
T3 peptide: cyclo(CGGGKLDFG)

T4: Linear CGGGKLDFG (SEQ ID NO: 15) conjugated to BSA (also: conjugated to BSA)
T4 construct: Screening antigen of the ELISA; also called corresponding linear peptide (3,1); linear peptide-BSA
T4 peptide: CGGGKLDFG

T5: Linear CGGGKLDFGG (SEQ ID NO: 16) conjugated to BSA (also: conjugated to BSA)
T5 construct: Screening antigen of the ELISA; also called corresponding linear peptide (3,2); linear peptide-BSA
T5 peptide: CGGGKLDFGG

T6: Linear CGGGGKLDFG (SEQ ID NO: 19) conjugated to BSA (also: conjugated to BSA)
T6 construct: Screening antigen of the ELISA; also called corresponding linear peptide (4,1); linear peptide-BSA
T6 peptide: CGGGGKLDFG


What was measured:
[1] = target: T7, tau monomers (Stressmarq) (UniProt P10636-8 1-441, limits assumed); assay: SPR, hybridoma supernatant over immobilized tau monomers
T7 construct: also called monomeric tau polypeptide
Protocol: (§1) Antibodies were tested for their ability to bind monomeric tau polypeptide as well as misfolded oligomeric tau polypeptide using surface plasmon resonance. Surface plasmon resonance measurements were performed using a Molecular Affinity Screening System (Sierra Sensors, Hamburg, Germany). Tau monomers (Stressmarq, Victoria, BC, Canada) or tau oligomers (SynAging, Vandoeuvre-les-Nancy, France) were immobilized on high amine capacity sensorchips and hybridoma supernatants (50% dilution) were injected over the immobilized surfaces at 10 μl/minute for 4 min followed by a 5 min dissociation phase. Mouse IgG1 was used as a negative control and a pan-tau reactive antibody was used as a positive control. The reverse orientation was used for purified antibodies: the mAbs were immobilized covalently on the surface of sensorchips (8000-12000 RUs) and serial dilutions of tau monomers or oligomers were injected over the surface.

tau oligomers (SynAging) [2] = target: T8, tau oligomers (SynAging) (UniProt P10636-8 1-441, limits assumed); assay: SPR, hybridoma supernatant over immobilized tau oligomers
T8 construct: also called misfolded oligomeric tau polypeptide
Protocol: as §1

tau oligomers (SynAging) [3] = target: T8, tau oligomers (SynAging); assay: SPR, oligomer RU / monomer RU (reference: tau monomers)
Protocol: as §1

[4] = target: T1, (4,1) cyclo(CGGGGKLDFG) (SEQ ID NO: 19) …; assay: indirect ELISA on other cyclic peptide-BSA conjugates
[5] = target: T2, (3,2) cyclo(CGGGKLDFGG) (SEQ ID NO: 16) …; assay: as above
[6] = target: T3, (3,1) cyclo(CGGGKLDFG) (SEQ ID NO: 15) …; assay: indirect ELISA, hybridoma supernatant on cyclic peptide-BSA
Protocol: (§2) Tissue culture supernatants from the hybridomas were tested by indirect ELISA on screening antigen (cyclic peptide-BSA and linear peptide-BSA) and were probed for both IgG and IgM antibodies using a Goat anti-IgG/IgM(H&L)-HRP secondary antibody and developed with TMB substrate.

[7] = target: T4, Linear CGGGKLDFG (SEQ ID NO: 15) …; assay: indirect ELISA, hybridoma supernatant on linear peptide-BSA
Protocol: as §2

[8] = target: T5, Linear CGGGKLDFGG (SEQ ID NO: 16) …; assay: as above
Protocol: as §2

[9] = target: T2, (3,2) cyclo(CGGGKLDFGG) (SEQ ID NO: 16) …; assay: indirect ELISA, hybridoma supernatant on cyclic peptide-BSA
Protocol: as §2

[10] = target: T6, Linear CGGGGKLDFG (SEQ ID NO: 19) …; assay: indirect ELISA, hybridoma supernatant on linear peptide-BSA
Protocol: as §2

[11] = target: T1, (4,1) cyclo(CGGGGKLDFG) (SEQ ID NO: 19) …; assay: indirect ELISA, hybridoma supernatant on cyclic peptide-BSA
Protocol: as §2

T8 sequence (P10636 other isoform, or with tags, fused parts or gaps limits assumed): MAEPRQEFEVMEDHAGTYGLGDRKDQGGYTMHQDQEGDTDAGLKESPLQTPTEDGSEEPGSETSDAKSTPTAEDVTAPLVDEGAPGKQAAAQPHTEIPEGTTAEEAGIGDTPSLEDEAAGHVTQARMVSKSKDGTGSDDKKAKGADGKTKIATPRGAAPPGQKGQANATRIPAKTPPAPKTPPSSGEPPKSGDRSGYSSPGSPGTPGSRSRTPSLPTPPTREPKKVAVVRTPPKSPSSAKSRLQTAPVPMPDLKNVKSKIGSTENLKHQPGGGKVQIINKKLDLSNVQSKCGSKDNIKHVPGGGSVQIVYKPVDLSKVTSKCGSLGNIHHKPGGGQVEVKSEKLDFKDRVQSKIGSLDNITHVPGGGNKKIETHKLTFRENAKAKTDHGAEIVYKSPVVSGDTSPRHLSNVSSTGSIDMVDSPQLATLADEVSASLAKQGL
T7 sequence (P10636 other isoform, or with tags, fused parts or gaps limits assumed): as above

Binder	binding response (RU) [1]	binding response (RU) (tau oligomers (SynAging) [2])	Ratio (O/M) (tau oligomers (SynAging) [3])	binding result [4]	binding result [5]	OD [6]	OD [7]	OD [8]	OD [9]	OD [10]	OD [11]
Ab29 (clone 12D11) (antibody, V domains shown, tested as hybridoma supernatant; kappa light chain) VH: QIQLVQSGPELKKPGETVKISCKASGYTFTNYGMNWVKQAPGKGLKWMGWINTYSGEPTYVDDFKGRFAFSLETSASTAYLQINNLKNEDMATYFCARSPGAYYTLDYWGQGTSVTVSS VL: DIVMSQSPSSLAVSAGEKVTMSCKSSQSLLNSRTRKNYLAWYQQKPGQSPKLLIYWASTRESGVPDRFTGSGSGTDFTLTISSVQAEDLAVYYCKQSYNLYTFGGGTKLEIK	3 RU	6.2 RU	2.1	no binding	no binding	1.35 OD					
Ab10 (clone 9D12) (antibody, V domains shown, kappa light chain) VH: QIQLVQSGPELKKPGETVKISCKASGYTFTNYGMNWVKQAPGKGLKWMGWINTYTGEPTYTDDFKGRFAFSLETSASTAYLQINNLKNEDTATYFCGRGIRDYYTMDYWGQGTSVTVSS VL: DIVMSQSPSSLAVSAGEKVTMSCKSSQSLLNNRTRKNYLAWYQQKPGQSPKLLIYWASTRESGVPDRFTGSGSGTDFTLTISSVQAEDLAVYYCKQSYNLYTFGGGTKLEIK	5.2 RU	14 RU	2.7					0.78 OD	1.6 OD		
Ab3 (clone 2C7) (antibody, V domains shown, tested as hybridoma supernatant; kappa light chain) VH: QVTLKESGPGILKPSQTLSLTCSFSGFSLSTSGMGVGWIRQPSGKGLEWLAHIWWDDDKYYNPSLKNRLTISKDTSRNQVFLKITSVDTADTATYYCVRSIYYYDSSPYYYVMDYWGQGTSVTVSS VL: DIVMTQSHKFMSTSVGDRVSITCKASQDVSIAVAWYQQKPGQSPKLLIYSASYRNTGVPDRFTGSGSGTDFTFTISSVQAEDLAVYYCQQHYSSPLTFGAGTKLELK	201 RU	269 RU	1.3							1.61 OD	1.79 OD
Ab21 (clone 2C6) (antibody, V domains shown, tested as hybridoma supernatant; kappa light chain; also called 2C6.1) VH: EVQLQQSGAELVKPGASVKLSCTASGFNIKDTHMHWVKQRPEQGLEWIGKIDPSNGNTQYDPKFQGKATITADTSSNTAYLQLSSLTSEDTAVYYCATGFAYWGQGTLVTVSA VL: DIQMTQSPASLSASVGETVTITCRASGNIHNYLAWYQQKQGKSPQLLVYNAKTLADGVPSRFSGSGSGTQYSLKINSLQPEDFGSYYCQHFWYTPWTFGGGTKLEIK	3.5 RU	6.6 RU	1.9			1.21 OD					
Ab13 (clone 10C9) (antibody, V domains shown, tested as hybridoma supernatant; kappa light chain) VH: EVQLQQSGTVLARPGASVKMSCKASGYRFTSYWMYWVKQRPGQGLEWIGAIYPGNSDTIYNQRFKGKATLTAVTSASTAYMELSSLANEDSAVYFCTRPYFDSWGQGTTLTVSS VL: not shown	4.8 RU	14.7 RU	3.1						1.29 OD		

Second part, the binder after the results:

binding response (RU) [1]	binding response (RU) (tau oligomers (SynAging) [2])	Ratio (O/M) (tau oligomers (SynAging) [3])	binding result [4]	binding result [5]	OD [6]	OD [7]	OD [8]	OD [9]	OD [10]	OD [11]	Binder
4.6 RU	10.2 RU	2.2			1.19 OD	1.69 OD					Ab23 (clone 8E11) (antibody, V domains shown, kappa light chain; also called 8E11.1) VH: QVQLQQSGAELVRPGSSVKISCKASGYAFSSYWMNWVKQRPGQGLEWIGQIYPGDGDTNYNGKFKGKATLTADKSSSTAYMQLSSLTSEDSAVYLCASQIYDGYYTFTYWGQGTLVTVSA VL: DIVMSQSPSSLAVSAGEKVTMSCKSSQSLLNSRTRKNYLAWYQQKPGQSPKLLIYWASTRVSGVPDRFTGSGSGTDFTLTISSVQAEDLAVYYCKQSYNLWTFGGGTKLEIK
5 RU	14.5 RU	2.9					0.784 OD	1.74 OD			Ab12 (clone 10B10) (antibody, V domains shown, tested as hybridoma supernatant; kappa light chain; also called 10B10.1) VH: QIQLVQSGPELKKPGETVKISCKASGYTFTNFGMNWVKQAPGKGLKWMGWINTFTGEPTYVDDFKGRFAFSLETSATTAYLQINNLKNEDTATYFCARSPGRVYTLDYWGQGTSVTVSS VL: DIVMSQSPSSLAVSAGEKVTMSCKSSQSLLNSRTRKNYLAWYQQKPGQSPKLLIYWASTRESGVPDRFTGSGSGTDFTLTISSVQAEDLAVYYCKQSYNLYTFGGGTKLEIK
3 RU	10.9 RU	3.7					0.774 OD	1.58 OD			Ab15 (clone 10D9) (antibody, V domains shown, tested as hybridoma supernatant; kappa light chain) VH: QVQLQQSGAELVKPGASVKLSCKASGYTFTSYYMFWVKQRPGQGLEWIGEINPSNGGSNFNEKFKSKATLTVDKSSSTAYMQLSSLTSEDSAVYYCTRGAFWGQGTLVTVSA VL: not shown
6.5 RU	17 RU	2.6					0.232 OD	1.64 OD			Ab11 (clone 9E4) (antibody, V domains shown, kappa light chain; The clone name 9E4 is also printed for Ab27; also called 9E4.1) VH: DVQVQESGPGLVKPSQSLSLTCTVTGYSITSDYAWTWIRQFPGNKLEWMGYISYSGSTSYNPSLKSRLSITRDTSKNQFFLQLNSVTTEDTATYYCAAYYRYGLAYFAYWGQGTLVTVSA VL: not shown
6.9 RU	18 RU	2.6					0.788 OD	1.7 OD			Ab14 (clone 10D4) (antibody, V domains shown, tested as hybridoma supernatant; kappa light chain) VH: DVQLQESGPGLVKPSQSLSLTCTVTGFSITSDYAWNWIRQFPGNKLEWMGFIRYSGNTRFNPSLKGRGSITRDTSKNQFFLQLNSVTTEDTATYYCASTLEDSYWYFDVWGAGTTVTVSS VL: DVLMTQTPLSLPVSLGDQASISCRSSQSIVHTNGNTYLEWYLQKPGQSPKLLIYKVSNRFSGVPDRFSGSGSGTDFTLKISRVEAEDLGVYYCFQGSHVPLTFGAGTKLELK
